The values below come from PMC7530383.

For the assay, the target named is actin (coated on the BLI biosensor). As to the kind of experiment: BLI; APS biosensor coated with actin; rTLP-1 in PBS pH 7.4 with 0.05% Tween 20 and 0.1% BSA; Octet RED, 25 °C; 300 s association, 120 s dissociation; n = 3.

On to “Recombinant transgelin‐like protein 1 (rTLP‐1) from Mytilus coruscus (natural protein)”, for which the dissociation constant (Kd) worked out at 9.45 µM.

What is called Kd is a measure of binding affinity in units of concentration. High values mean weaker binding, low ones tighter binding.
